These results are taken from paper PMC6172241, “A multisubstrate reductase from Plantago major: structure-function in the short chain reductase superfamily” (Scientific Reports, 2018).

As a reminder, the Km is the substrate concentration at which the rate is half of its maximum. In general, Vmax refers to the rate approached at saturating substrate. As usually defined, the kcat/Km is the turnover number divided by the Michaelis constant.

What all share (assay): purified protein
Substrate in series [1]: CC(=O)[C@H]1CC[C@H]2[C@@H]3CCC4=CC(=O)CC[C@]4(C)[C@H]3CC[C@]12C
Particulars: 150 µM NADPH, 20 mM MOPS pH 7.0, 3% DMSO, substrate 10-200 µM (limited solubility), crystal structure with NAD+ at 2.7 Å, poor ligand density.

Substrate in series [2]: CC(C)=CCC/C(C)=C/C=O
The settings on record: 150 µM NADPH, 20 mM MOPS pH 7.0, 3% DMSO, geranial/neral mixture.

Substrate in series [3]: C/C(C=O)=C\CC/C(C)=C/C=O
The settings on record: 150 µM NADPH, 20 mM MOPS pH 7.0, 3% DMSO, reductive cyclisation to nepetalactol, crystal structure with NADP+ at 1.86 Å.

B1: PmMOR (P. major multisubstrate oxido-reductase) (Plantago major) (protein)
chain: MSWWWAGAIGAAKKRSDEDEALPKHSSVALIVGVTGIVGNSLAEILPLADTPSGPWKVYGVARRPRPAWNEDNPINYIRCDISDPKDTQEKLSPLTDITHVFYVTWANRSTEVERCEANGKMLKNVLDVVIPNCPDLKHISLQTGRKHYVGPFELIGKIETHDPPFTEDLPRLKFDNFYYTQEDLLFEEVEKKEGLTWSVHRPGNIFGFSPYSMMNLVGTLCVYAAICKHEGKVLRFPGCKAAWDGYSDCSDADLIAEHHIWAAVDPYAKNEAFNVSNGDVFKWKHFWKVLAEQFGVECGEYEEGENLKLQDLMKGKEPVWEEIVRENGLASTNLEDVAVWWFSDAVLDIPCPLDSMNKSKEHGFLGFRNSKNSFISWIDKAKAYKIVP
Turning to B1, in the series “purified protein [1]”, the Km came to 28 ± 3.0 µM, the maximum rate (Vmax) came out at 0.00014 µmol/min and the kcat/Km turned out to be 2100 M⁻¹ s⁻¹. Also, in the series “purified protein [2]”, the Michaelis-Menten constant (Km) is 82 ± 4.5 µM, the maximum rate (Vmax) came to 0.00152 µmol/min and the specificity constant (kcat/Km) came out at 17000 M⁻¹ s⁻¹. Further, in “purified protein [3]”, the Michaelis-Menten constant (Km) worked out at 368 ± 37 µM, the Vmax was determined as 0.0053 µmol/min and the catalytic efficiency (kcat/Km) was 2600 M⁻¹ s⁻¹.
